Data from US20230050615A1 (Ablynx, published 2023).

Legend:
[1] = target: T1, human serum albumin (Sigma-Aldrich A3782) (human, UniProt P02768 25-609); assay: competition ELISA on coated human serum albumin; tracer 1.5 nM [SEQ ID NO:1-cMycHis6] detected with anti-cMyc
T1 construct: Bought protein; also called HSA; human SA

[2] = target: T1, human serum albumin (Sigma-Aldrich …); assay: SPR (ProteOn), HSA immobilised, 500 nM injected, dissociation at pH 5.0
[3] = target: T2, cynomolgus monkey serum albumin (generated in-house) (cynomolgus monkey, UniProt A2V9Z4 25-608, limits assumed); assay: SPR (ProteOn XPR36), albumin immobilised, pH 7.4
T2 construct: also called cyno SA

[4] = target: T3, guinea pig serum albumin (Gentaur GPSA62) (guinea pig); assay: SPR (ProteOn XPR36), albumin immobilised, pH 7.4
T3 construct: also called guinea pig SA

[5] = target: T1, human serum albumin (Sigma-Aldrich …); assay: SPR (ProteOn XPR36), albumin immobilised, pH 7.4
[6] = target: T4, mouse serum albumin (Albumin Bioscience 2601) (mouse, UniProt P07724 25-608); assay: SPR (ProteOn XPR36), albumin immobilised, pH 7.4
T4 construct: Bought protein; also called mouse SA

[7] = target: T5, rat serum albumin (Sigma-Aldrich A4538) (rat, UniProt P02770 25-608); assay: SPR (ProteOn XPR36), albumin immobilised, pH 7.4
T5 construct: Bought protein; also called rat SA

[8] = target: T1, human serum albumin (Sigma-Aldrich …); assay: SPR (ProteOn), HSA immobilised, 500 nM injected, dissociation at pH 6.0
[9] = target: T1, human serum albumin (Sigma-Aldrich …); assay: SPR (ProteOn), HSA immobilised, 500 nM injected, dissociation at pH 7.4

B1: [His6Flag3-SEQ ID NO:15] (VHH)
VHH: EVQLVESGGGLVQAGGSLRLSCAASGLTFSSYAMGWFRQAPGKERERVVSISRGGGYTYYADSVKGRFTISRDNAENTVYLQMNSLKPEDTAVYYCAAARYWATGSEYEFDYWGQGTLVTVSS
notes: not shown: N-terminal His6-Flag3 tag
- IC50 (read off the curve) [1]: ~0.8 nM

B2: serum albumin binder of SEQ ID NO:15 (T0235005D04, wild type) (VHH)
VHH: B1 VHH
notes: no tag is stated for these experiments
- koff [2]: 5.8e-05 s⁻¹
- Kd [3]: 0.12 nM
- koff [3]: 9.4e-05 s⁻¹
- kon [3]: 770000 M⁻¹ s⁻¹
- Kd [4]: 1.5 nM
- koff [4]: 0.0021 s⁻¹
- kon [4]: 1.4e+06 M⁻¹ s⁻¹
- Kd [5]: 0.19 nM
- koff [5]: 0.00015 s⁻¹
- kon [5]: 810000 M⁻¹ s⁻¹
- Kd [6]: 1.9 nM
- koff [6]: 0.0024 s⁻¹
- kon [6]: 1.2e+06 M⁻¹ s⁻¹
- Kd [7]: 21 nM
- koff [7]: 0.022 s⁻¹
- kon [7]: 1e+06 M⁻¹ s⁻¹
- koff [8]: 6.9e-05 s⁻¹
- koff [9]: 0.00011 s⁻¹
